B1: PTPRD (parent)
chain: LTKLREMGREKCHQYWPAERSARY
B2: LCOR (parent)
chain: PCAGSTSLSHSPGCSSTQGNGRPG

Variants of: B1
Experiment: protein stability index of a GFP-peptide fusion (GPS, HEK-293T) (PSI 1-6); higher = more stable
Settings: c terminus: a fixed tail appended
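Also: lentivirally expressed fusions sorted by FACS into six bins by GFP to DsRed ratio, PSI derived from sequencing read proportions per bin multiplied by bin number.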

Protein stability index, by site and new letter:
W16: P 3.27 | T 2.6 | I 2.7 | Y 2.58 | F 2.91 | L 2.96 | D 3.8 | N 3.5 | Q 3.26 | S 2.84 | A 3.15 | K 3.03 | C 2.8 | E 3.47 | G 3.25 | V 2.76 | R 3.29 | H 2.91 | M 2.85
A18: E 2.73 | L 1.87 | Y 1.97 | T 2.27 | K 2.48 | Q 2.53 | M 1.97 | C 2.31 | H 2.19 | I 2.21 | D 2.49 | N 2.16 | W 2.16 | R 2.13 | P 2.39 | G 2.06 | V 2.26 | S 2.17 | F 2.21
Y15: T 2.82 | M 2.53 | W 1.99 | S 2.92 | N 3.19 | Q 2.79 | L 2.46 | P 2.64 | R 2.82
P17: I 2.25 | R 2.37 | G 2.29 | K 2.58 | D 2.79 | F 1.99 | M 1.97 | C 1.79 | Y 2.17 | E 2.5 | L 2.01 | V 1.74 | H 1.75 | T 2.32 | W 2.04 | A 2.12 | Q 2.16 | N 1.84 | S 2.09
R23: H 2.26 | Y 1.6 | V 1.85 | F 1.79 | W 1.68 | D 3.39 | K 2.49 | G 2.38 | L 2.09 | C 2.06 | I 1.99 | S 1.96 | Q 1.74 | E 2.67 | T 2.4 | P 3.02 | M 1.69 | A 2.42 | N 2.24
S21: Q 2.08 | E 2.15 | C 1.7 | A 2.58 | W 1.94 | T 2.77 | N 2.17 | V 2.17 | Y 2.61 | I 2.99 | P 2.24 | R 2.16 | M 1.96 | L 1.96 | D 2.83 | K 2.72 | G 1.91 | H 1.91 | F 2
R20: S 2.3 | N 2.62 | Y 2.33 | E 2.69 | D 2.92 | A 2.05 | K 2.28 | H 2.2 | W 1.51 | L 2.34 | G 2.88 | V 2.03 | C 2.42 | M 2.25 | T 2.66 | Q 2.38 | P 2.77 | I 1.86 | F 1.93
Y24: K 3.02 | R 2.7 | V 2.41 | F 2.21 | W 2.46 | P 2.5 | E 3.1 | T 2.35 | C 2.65 | N 3.2 | H 2.75 | D 3.55 | I 2.29 | M 2.12 | G 2.67 | S 3.01 | A 2.59 | Q 2.65 | L 2.31
A22: T 3.02 | H 2.21 | R 2.42 | P 2.65 | Y 2.23 | G 2.33 | I 2.08 | M 2.33 | N 2.57 | D 2.4 | Q 2.54 | W 1.83 | S 2.16 | C 2.15 | F 1.58 | L 2.12 | K 2.65 | E 2.53 | V 2.64
E19: G 2.18 | D 2.81 | A 2.31 | N 2.46 | R 2.56 | S 2.29 | I 1.91 | L 1.7 | C 2.21 | Q 2.2 | M 2.19 | F 2.29 | W 2.15 | Y 1.86 | H 2.06 | P 2.29 | T 2.21 | K 2.75 | V 1.67

Variants of: B2
Experiment: as above
Settings: c terminus: a fixed tail appended

Protein stability index, by site and new letter:
S11: H 3.3 | W 2.74 | Q 3.27 | C 1.94 | E 3.73 | N 2.75 | M 3.28 | Y 2.9 | F 3.1 | V 2.86 | I 2.18 | P 3.16 | R 2.53 | A 2.63 | G 2.96 | K 2.81 | D 4
L8: F 3.91 | V 3.58 | E 4.45 | R 3.87 | N 4.15 | T 4.15 | G 4.25 | K 4.34 | Y 4.95 | I 3.67 | C 4.55 | P 4.24
P12: E 4.43 | C 1.01 | A 3.99 | G 4.15 | F 1.91 | D 4.35
T6: R 4.93 | E 5.02 | S 2.77 | H 3.11 | K 2.71 | F 2.91 | V 3.9 | D 4.35 | P 3.69 | W 2.84 | Y 3.39
G4: H 3.52 | T 3.71 | I 2.28 | P 4.17 | S 3.56 | F 1.98 | L 2.43 | E 4.2 | A 2.7 | K 4.38 | R 4.25 | M 2.92 | Q 4.2
S7: Y 2.87 | N 3.43 | F 2.72 | L 1.64 | K 4 | M 1.82 | A 2.19 | I 1.92 | W 3.05 | D 4.82 | H 2.42 | Q 3.23 | T 3.19
H10: I 3.89 | D 4.89 | Y 4.3 | P 3.37 | S 4.29 | R 3.41 | C 2.72 | T 4.4 | L 4.39 | E 5.05 | A 4.02 | Q 4.94 | K 4.86
A3: G 3.4 | Q 4.08 | V 3.87 | Y 3.21 | K 4.69 | T 3.06 | M 3.63 | L 3.93 | S 3.73 | E 2.77 | D 4.98 | C 4.78 | H 4 | I 4.1
S5: P 2.15 | T 1.75 | W 3.35 | A 2.98 | G 4.2 | F 3.35 | N 2.67 | I 1.61 | K 4.35 | D 4.27 | E 3.94 | M 2.9 | R 2.71 | Y 2.41
P1: C 4.16 | K 4.35 | S 3.12 | I 3.48 | N 4.33 | E 3.77 | A 2.61 | R 3.63 | F 3.04 | Y 2.96 | L 3.57 | H 2.48 | M 3.39 | D 4.08
S9: Y 1.89 | E 3.85 | K 3.62 | T 3 | Q 3.48 | P 3.79 | M 3.48 | R 1.04 | D 4.12 | W 2.66 | G 2.85 | H 2.36 | F 2.4
C2: R 5.27 | Y 3.55 | L 4.76 | V 4.04 | Q 4.65 | F 3.99 | S 3.28 | A 2.92 | T 3.63 | I 2.92 | W 4.09 | K 4.48 | N 4.74 | H 4.99

Source: the supplement of paper PMC10567573
